What was measured:
Experiment in all cases: purified protein
purified protein [1] = substrate: O=[N+]([O-])c1ccc(O[C@@H]2O[C@H](CO)[C@@H](O)[C@H](O)[C@H]2O)cc1; settings: 1-50 mM substrate
purified protein [2] = substrate: O=[N+]([O-])c1ccc(O[C@@H]2OC[C@@H](O)[C@H](O)[C@H]2O)cc1; type: biochemical, bacterium enrichment culture; settings: 1-50 mM substrate
purified protein [3] = substrate: O=[N+]([O-])c1ccc(O[C@@H]2O[C@H](CO)[C@@H](O[C@@H]3O[C@H](CO)[C@@H](O)[C@H](O)[C@H]3O)[C@H](O)[C@H]2O)cc1; type: biochemical, bacterium enrichment culture; settings: optimal conditions of the enzyme (optimum pH 6.0, 65°C), 1-50 mM substrate
purified protein [4] = substrate: O=[N+]([O-])c1ccc(O[C@@H]2O[C@@H](CO)[C@H](O)[C@H]2O)cc1; type: biochemical, bacterium enrichment culture; settings: optimal conditions of the enzyme (optimum pH 4.5, 60°C), 1-50 mM substrate
[5] = optimal conditions of the enzyme (optimum pH 6.0, 65°C), pH 6.0, 65.0 °C
[6] = optimal conditions of the enzyme (optimum pH 6.0, 65°C)
[7] = optimal conditions of the enzyme (optimum pH 4.5, 60°C), pH 4.5, 60.0 °C
[8] = optimal conditions of the enzyme (optimum pH 4.5, 60°C)

Row | Protein | Km (purified protein [1]; [5]) | kcat (purified protein [1]; [5]) | kcat/Km (purified protein [1]; [5]) | Km (purified protein [2]; [6]) | kcat (purified protein [2]; [6]) | kcat/Km (purified protein [2]; [6]) | Km (purified protein [3]) | kcat (purified protein [3]) | kcat/Km (purified protein [3]) | Km (purified protein [1]; [7]) | kcat (purified protein [1]; [7]) | kcat/Km (purified protein [1]; [7]) | Km (purified protein [4]) | kcat (purified protein [4]) | kcat/Km (purified protein [4]) | Km (purified protein [2]; [8]) | kcat (purified protein [2]; [8]) | kcat/Km (purified protein [2]; [8])
1 | Bgl8520 (bacterium enrichment culture) (protein, no signal peptide; pET-28a(+) in E. coli BL21 (DE3), Ni-NTA purified) MNKHNKGGLLMKFPENFVWGAAAASYQIEGAAYEDGKGLSVWDIFTRQKGAIENGDNGDIACNHYHRYKEDVQLMKELGLQAYRLSLSWPRILANGTGKVNQKGLDFYDKLIDELLENGIEPYITLFHWDYPYELYKKGGWLNPDSPDWFAEYTEVVVQKLSDRVKNWITINEPQVFVNLGHKDGVHAPGLKLGMEDLLQISHNVLLAHGKGARVIRETSVQDCRIGLAPSDSPVFPATKSEENIQAARRASFSVEDKGLWAINWWMDPVILGRYPEEGLKIFEEYLPEIKTDDFKIISEPIDFFGVNIYQGVCVKLDDKGQAVPAERKVGYARNAYYWPITPEALYWGPRFYYERYKKPVIITENGMSNVDWVAVDGKVHDPQRIDFTNRYLRELQKAGEDGVDIQGYFHWSLMDNFEWAQGYLERFGLIYVDFETGERIIKDSAYWYKKVIETKGEALYA | 0.9 mM | 124 s⁻¹ | 140000 M⁻¹ s⁻¹ | 0.7 mM | 0.3 s⁻¹ | 430 M⁻¹ s⁻¹ | 2.7 mM | 8.2 s⁻¹ | 3000 M⁻¹ s⁻¹ |  |  |  |  |  |  |  |  | 
2 | Xyl522 (bacterium enrichment culture) (protein, no signal peptide; pET-28a(+) in E. coli BL21 (DE3), Ni-NTA purified) MVYKMLFQRSDLPMEERIKDLISRLTLEEKVSQLLYDSAAIPHLGIPEYNWWNECLHGVARAGTATVFPQAIGMAASFNAPLLQQVAEVIATEARAKHHEAARHGDRGIYKGLTFWTPNINIFRDPRWGRGQETYGEDPYLTAQLGIAFVKGLQGDHPKYLKAAACAKHFAVHSGPESLRHSFDARCSQKDLYETYLPAFRALVTEAKVESVMGAYNRTNGEPCCASPTLLQKILREDWGFEGHVVSDCGAIHDIHAHHKVTGSPEESAALAVKNGCDLNCGRVYPALVEAVAQGLISEEEIDRALARLLRTKFKLGLFDPEEEVPYAQIPYEVVACDEHRSLAREMARQSMVLLKNENNLLPLSKELKTVAVIGPNADSRKVLLGNYFGTSSQLVTALEGIRRKLEPNCRVLYAEGCDLTTTRPGYWGNSPREGFAEALAVAERADAVIMCMGVSPDLEGEEGAAANSDGGGDRLTLELPGMQNELIKEVAALGKPLVLVLFSGSPLAVTWAQENVPAIIQAWYPGEEGGNALADIIFGDYNPAGRLPITFVKSLDQLPPFTDYSMEGRTYRYLKEEPLYPFGYGLSYTSFTYSNLQAPAELNIGEELVVQVDVENTGARAGDEVVQLYIRHRDASAAVPHHSLQGFARIRLEPGEKRTVTFRLAPRQLAVFDEEGRCLVEPGAVELLAGGSQPDARSEELTGQKPLLGQVLLVGETLELPR |  |  |  |  |  |  |  |  |  | 15.7 mM | 1.4 s⁻¹ | 89.2 M⁻¹ s⁻¹ | 10.0 mM | 3.2 s⁻¹ | 320 M⁻¹ s⁻¹ | 8.8 mM | 14.3 s⁻¹ | 1600 M⁻¹ s⁻¹

— paper PMC4441150, “Synergistic function of four novel thermostable glycoside hydrolases from a long-term enriched thermophilic methanogenic digester” (Frontiers in Microbiology, 2015)
